Measured values published in paper PMC7373187.
One block for each substance: values may come before it.

Legend:
[1] = target: His6-GapR_(1–69), truncated GapR lacking the entire helix H3 (C. crescentus); experiment: cross-linking; 400 mM EDC plus 100 mM NHS, 2 h, room temperature; proteins at 50 μM (monomer); 1 M NaCl and 1 mM EDTA (no DNA bound); SDS-PAGE, silver stained
[2] = target: His6-GapR_(1–69), truncated GapR lacking the entire helix H3 (C. crescentus); experiment: SEC; Superdex 75 10/300 GL, 1 M NaCl and 1 mM EDTA, proteins separated from copurified DNA; His6-GapR1-89 at 50 μM, His6-GapR1-69 at 125 μM, His6-GapR1-76 at 100 μM (monomer)
[3] = target: His6-GapR_(1–76), truncated GapR lacking the hydrophobic patch of helix H3 (C. crescentus); experiment: cross-linking; 400 mM EDC plus 100 mM NHS, 2 h, room temperature; proteins at 50 μM (monomer); 1 M NaCl and 1 mM EDTA (no DNA bound); SDS-PAGE, silver stained
[4] = target: His6-GapR_(1–76), truncated GapR lacking the hydrophobic patch of helix H3 (C. crescentus); experiment: SEC; Superdex 75 10/300 GL, 1 M NaCl and 1 mM EDTA, proteins separated from copurified DNA; His6-GapR1-89 at 50 μM, His6-GapR1-69 at 125 μM, His6-GapR1-76 at 100 μM (monomer)
[5] = target: His6-GapR_(1–89), full-length wild-type GapR of Caulobacter crescentus (C. crescentus); experiment: cross-linking; 400 mM EDC plus 100 mM NHS, 2 h, room temperature; proteins at 50 μM (monomer); 1 M NaCl and 1 mM EDTA (no DNA bound); SDS-PAGE, silver stained
[6] = target: His6-GapR_(1–89), full-length wild-type GapR of Caulobacter crescentus (C. crescentus); experiment: SEC; Superdex 75 10/300 GL, 1 M NaCl and 1 mM EDTA, proteins separated from copurified DNA; His6-GapR1-89 at 50 μM, His6-GapR1-69 at 125 μM, His6-GapR1-76 at 100 μM (monomer)
[7] = target: His6-GapR_(1–89), full-length wild-type GapR of Caulobacter crescentus (C. crescentus); experiment: cross-linking; 400 mM EDC plus 100 mM NHS, 2 h, room temperature; proteins at 50 μM (monomer); 150 mM NaCl, 10% glycerol, 20 mM HEPES (for tagged and untagged GapR1-89 also 50 mM sodium phosphate); SDS-PAGE, silver stained
[8] = target: untagged GapR_(1–89) (C. crescentus); experiment: as above

stoichiometry N [1]: 2
stoichiometry N [2]: 2
Substance: His6-GapR_(1–69), truncated GapR lacking the entire helix H3 (domain or fragment)

stoichiometry N [3]: 2
stoichiometry N [4]: 2
Substance: His6-GapR_(1–76), truncated GapR lacking the hydrophobic patch of helix H3 (domain or fragment)

stoichiometry N [5]: 4
stoichiometry N [6]: 4
stoichiometry N [7]: 4
Substance: His6-GapR_(1–89), full-length wild-type GapR of Caulobacter crescentus (natural protein)

stoichiometry N [8]: 4
Substance: untagged GapR_(1–89) (natural protein)
